Results taken from patent US20160264649A1.

Experiments:
Experiment in all cases: cell-based or functional assay
[1] = biological target: HIV-1 MGRM-D-024 Env (HIV-1)
[2] = biological target: HIV-1 MGRM-G-006 Env (HIV-1)
[3] = biological target: HIV-1 IAVI-C18 Env (HIV-1)
[4] = biological target: HIV-1 93IN905 Env (HIV-1)
[5] = biological target: HIV-1 MGRM-AE-001 Env (HIV-1)
[6] = biological target: HIV-1 MGRM-C-005 Env on pseudovirus (HIV-1)
[7] = biological target: HIV-1 MGRM-G-017 Env (HIV-1)
[8] = biological target: HIV-1 MGRM-F1-006 Env (HIV-1)
[9] = biological target: HIV-1 MGRM-G-024 Env (HIV-1)
[10] = biological target: HIV-1 IAVI-C22 Env (HIV-1)
[11] = biological target: HIV-1 APV_6 Env on pseudovirus (HIV-1)
[12] = biological target: HIV-1 92RW020 Env (HIV-1)
[13] = biological target: HIV-1 MGRM-G-014 Env (HIV-1)
[14] = biological target: HIV-1 MGRM-D-011 Env (HIV-1)
[15] = biological target: HIV-1 MGRM-Chronic-B-012 Env on pseudovirus (HIV-1)
[16] = biological target: HIV-1 MGRM-C-023 Env on pseudovirus (HIV-1)
[17] = biological target: HIV-1 MGRM-C-004 Env on pseudovirus (HIV-1)
[18] = biological target: HIV-1 98CN009 Env on pseudovirus (HIV-1)
[19] = biological target: HIV-1 93IN905 Env on pseudovirus (HIV-1)
[20] = biological target: HIV-1 JRCSF Env on pseudovirus (HIV-1) (UniProt P20871)
[21] = biological target: HIV-1 92UG001 Env (HIV-1)
[22] = biological target: HIV-1 MGRM-C-014 Env on pseudovirus (HIV-1)
[23] = biological target: HIV-1 93MW959 Env on pseudovirus (HIV-1)
[24] = biological target: HIV-1 93TH305 Env on pseudovirus (HIV-1)
[25] = biological target: HIV-1 MGRM-F1-022 Env (HIV-1)
[26] = biological target: HIV-1 MGRM-F1-020 Env (HIV-1)
[27] = biological target: HIV-1 MGRM-Chronic-B-024 Env on pseudovirus (HIV-1)
[28] = biological target: HIV-1 MGRM-AG-012 Env (HIV-1)
[29] = biological target: HIV-1 MGRM-D-012 Env (HIV-1)
[30] = biological target: HIV-1 THR0.18 (Acute) Env on pseudovirus (HIV-1)
[31] = biological target: HIV-1 92UG024 Env (HIV-1)
[32] = biological target: HIV-1 MGRM-G-019 Env (HIV-1)
[33] = biological target: HIV-1 MGRM-G-027 Env (HIV-1)
HIV-1 CMU02 Env (HIV-1) = biological target: HIV-1 CMU02 Env (HIV-1)
[34] = biological target: HIV-1 MGRM-F1-010 Env (HIV-1)
[35] = biological target: HIV-1 MGRM-F1-016 Env (HIV-1)

1496_C09 (PG9) (TCN-109) (antibody)
IC50 (µg/ml), pseudovirus neutralization [1]: 0.03 µg/mL
IC50 (µg/ml), pseudovirus neutralization [2]: 0.51 µg/mL
neutralization IC50 [3]: 0.0535 µg/mL
neutralization IC90 [3]: 0.866 µg/mL
neutralization IC90 [4]: 1.89 µg/mL
IC50 (µg/ml), pseudovirus neutralization [5]: 2.97 µg/mL
IC50 [6]: 2.98 µg/mL
IC50 (µg/ml), pseudovirus neutralization [7]: 0.03 µg/mL
IC50 (pseudovirus neutralization) [8]: 1.45 µg/mL
IC50 (µg/ml), pseudovirus neutralization [9]: 0.07 µg/mL
neutralization IC50 [10]: 24.9 µg/mL
IC50 [11]: 0.12 µg/mL
IC50, TZM-bl pseudovirus neutralization [12]: 0.1 µg/mL
neutralization IC50 [12]: 0.0637 µg/mL
neutralization IC90 [12]: 6.55 µg/mL
IC50 (µg/ml), pseudovirus neutralization [13]: 6.32 µg/mL
IC50 (µg/ml), pseudovirus neutralization [14]: 0.06 µg/mL
IC50 [15]: 0.91 µg/mL
IC50 [16]: 0.51 µg/mL
IC50 [17]: 1.18 µg/mL
IC50 [18]: 1.07 µg/mL
IC50 [19]: 0.03 µg/mL
IC50 [20]: 0.003 µg/mL
IC50 (µg/ml), pseudovirus neutralization [21]: 41.8 µg/mL
IC50 [22]: 0.64 µg/mL
IC50 [23]: 0.04 µg/mL
IC50 [24]: 2.08 µg/mL
IC50 (pseudovirus neutralization) [25]: 0.06 µg/mL
IC50 (pseudovirus neutralization) [26]: 4.55 µg/mL
IC50 [27]: 0.18 µg/mL
IC50 (µg/ml), pseudovirus neutralization [28]: 1.37 µg/mL
IC50 (µg/ml), pseudovirus neutralization [29]: 9.31 µg/mL
IC50 [30]: 12.4 µg/mL
IC50 (µg/ml), pseudovirus neutralization [31]: 1.91 µg/mL
IC50 (µg/ml), pseudovirus neutralization [32]: 0.67 µg/mL
IC50 (µg/ml), pseudovirus neutralization [33]: 0.01 µg/mL
IC50 (µg/ml), pseudovirus neutralization (HIV-1 CMU02 Env (HIV-1)): 7.69 µg/mL
IC50 (pseudovirus neutralization) [34]: 0.03 µg/mL
IC50 (pseudovirus neutralization) [35]: 0.58 µg/mL
